Results as given in article PMC7335187, “Super-assembly of ER-phagy receptor Atg40 induces local ER remodeling at contacts with forming autophagosomal membranes” (Nature Communications, 2020).
One block for each substance: values may come before it.

Columns and labels:
[1] = biological target: Atg8 (1-116) K26P (S. cerevisiae) (UniProt P38182); experiment: ITC; MicroCal iTC200, 25 °C; peptide in the syringe (FAM134B, SEC62, RTN3 0.5 mM; Atg40^234–252 2.0 mM; Atg40^237–252 1.8 mM), Atg8-family protein in the cell at 10 times lower concentration (1.8 mM Atg8 for Atg40^237–252 D243A D247A); 20 mM HEPES pH 6.8, 150 mM NaCl; single-site model; errors are fitting errors
[2] = biological target: LC3B WT (rat LC3B 1-120) (rat) (UniProt Q62625); experiment: ITC; peptide in the syringe (0.5 mM) titrated into 200 µl of the Atg8 homologue in the cell at a 10 times lower concentration; MicroCal iTC200, 25 °C, stirring at 1000 rpm; single-site binding model; N fixed to 1.0 when the fitting was not convergent due to weak interaction; errors are fitting errors
[3] = biological target: GABARAP WT (human GABARAP 1-116) (human) (UniProt O95166); experiment: as above
LC3A WT = LC3A WT (UniProt Q9H492); experiment: as above
GABARAPL1 WT = GABARAPL1 WT (UniProt Q9H0R8); experiment: as above
LC3C WT = LC3C WT (UniProt Q9BXW4); experiment: as above
GABARAPL2 WT = GABARAPL2 WT (UniProt P60520); experiment: as above
GABARAPL2 WT, sequence (P60520 whole entry): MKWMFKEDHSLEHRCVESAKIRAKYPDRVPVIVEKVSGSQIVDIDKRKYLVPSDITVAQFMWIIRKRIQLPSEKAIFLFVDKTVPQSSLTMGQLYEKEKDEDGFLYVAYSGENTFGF

GABARAP WT (human GABARAP 1-116) (human), sequence (O95166 1-116): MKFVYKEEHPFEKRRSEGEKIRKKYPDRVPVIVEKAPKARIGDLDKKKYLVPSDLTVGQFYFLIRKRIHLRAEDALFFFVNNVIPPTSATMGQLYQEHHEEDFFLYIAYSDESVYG
GABARAPL1 WT, sequence (Q9H0R8 whole entry): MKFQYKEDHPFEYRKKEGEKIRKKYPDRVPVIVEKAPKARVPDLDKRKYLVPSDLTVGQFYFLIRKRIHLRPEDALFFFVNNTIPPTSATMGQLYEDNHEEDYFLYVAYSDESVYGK
LC3C WT, sequence (Q9BXW4 1-126): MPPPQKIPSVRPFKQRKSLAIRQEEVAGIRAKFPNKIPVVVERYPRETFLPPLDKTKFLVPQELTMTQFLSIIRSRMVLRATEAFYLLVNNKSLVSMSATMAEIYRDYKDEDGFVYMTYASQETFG
Atg8 (1-116) K26P (S. cerevisiae), sequence (P38182 1-116 K26P): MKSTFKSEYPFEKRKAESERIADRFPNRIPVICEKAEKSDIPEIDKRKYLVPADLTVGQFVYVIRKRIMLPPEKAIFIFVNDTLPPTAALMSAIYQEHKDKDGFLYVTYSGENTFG

- Kd [1]: 570 nM
Substance: Atg40^237–252 peptide (from UniProt Q99325 237-252)

- Kd [2]: 8.2 µM
- stoichiometry N [2]: 1.28 site
Substance: FAM134B444-470 E456A E462A peptide

- Kd [3]: 2060 nM
- stoichiometry N [3]: 0.99 site
Substance: FAM134B444-470 L458A peptide

- Kd [2]: 0.62 µM
- stoichiometry N [2]: 1.08 site
- Kd (LC3A WT): 210 nM
- stoichiometry N (LC3A WT): 0.7 site
- Kd (GABARAPL1 WT): 120 nM
- stoichiometry N (GABARAPL1 WT): 0.97 site
- Kd (LC3C WT): 1110 nM
- stoichiometry N (LC3C WT): 0.74 site
- Kd (GABARAPL2 WT): 300 nM
- stoichiometry N (GABARAPL2 WT): 0.89 site
Substance: FAM134B444-470 WT peptide
